Residue numbers refer to the chain shown, from its start. In names and notes the source's numbering stands.
Key:
[1] = molecular target: T1, Human CLEC12A-His (recombinant, K244 WT) (human, UniProt Q5QGZ9 65-265); test: SPR, two-state fit
T1 construct: Made in house (Dragonfly Tx); also called hCLEC12A; hCLEC12A-His; not shown: His tag
T1 sequence: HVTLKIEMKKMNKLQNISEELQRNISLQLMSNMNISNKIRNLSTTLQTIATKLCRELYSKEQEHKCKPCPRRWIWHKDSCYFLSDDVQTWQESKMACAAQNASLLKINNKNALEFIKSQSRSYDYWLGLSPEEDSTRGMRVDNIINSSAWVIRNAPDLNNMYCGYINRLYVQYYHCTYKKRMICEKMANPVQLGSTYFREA

Human CLEC12A-K244Q-His = molecular target: T2, Human CLEC12A-K244Q-His (human, UniProt Q5QGZ9 65-265); test: SPR, two-state fit
T2 construct: also called hCLEC12A (Q244); CLEC12A (Q244); not shown: His tag
T2 chain: T1 sequence with K180Q

[2] = molecular target: T1, Human CLEC12A-His (recombinant, K244 WT); test: SPR, two-state fit (kd1); control sample
Protocol: (§1) Briefly, human Fc specific antibodies were covalently immobilized at a density ˜8000-10000 resonance units (RU) on carboxy methyl dextran matrix of a CM5 biosensor chip via amine-coupling chemistry to create an anti-hFc IgG chip. […] Association was monitored for 300 seconds and dissociation was monitored for 600 seconds. Surfaces were regenerated between cycles with three pulses of 10 mM glycine-HCl, pH 1.7 injected for 20 seconds at 100 μl/min. HBS-EP+ (1×) with 0.1 mg/ml BSA was used as running buffer throughout the experiment. Experiments were performed at physiological temperature of 37° C. To obtain kinetic rate constants and overall binding affinity, double-referenced data were fit to a two-state kinetic model using Biacore 8K Insight Evaluation software (Cytiva).

[3] = molecular target: T1, Human CLEC12A-His (recombinant, K244 WT); test: SPR, untreated CLEC12A, two-state fit (ka1)
Protocol: as §1

[4] = molecular target: T1, Human CLEC12A-His (recombinant, K244 WT); test: SPR, two-state fit (ka1); after low pH hold
Protocol: as §1

[5] = molecular target: T1, Human CLEC12A-His (recombinant, K244 WT); test: SPR, two-state fit; after 4 wks 40C in CST pH 7.0
Protocol: as §1

Kd [1]: 0.6 nM
Kd (Human CLEC12A-K244Q-His): 1.17 nM
koff [2]: 0.042 s⁻¹
kon [3]: 1.63e+07 M⁻¹ s⁻¹
kon [4]: 1.11e+07 M⁻¹ s⁻¹
Kd [5]: 1 nM
B1: AB0089 TriNKET (bispecific antibody, human IgG1, kappa)
chain: QLQLQESGPGLVKPSETLSLTCTVSGFSLTNYGLHWIRQPPGKCLEWIGVIWVGGATDYNPSLKSRVTISVDTSKNQFSLKLSSVQAADTAVYYCAKGDYGDTLDYWGQGTLVTVSSGGGGSGGGGSGGGGSGGGGSDIQMTQSPSSLSASVGDRVTITCHASQNINFWLSWYQQKPGKAPKLLIYEASNLHTGVPSRFSGSGSGTDFTLTISSLQPEDFATYYCQQSHSYPLTFGCGTKLEIKGSDKTHTCPPCPAPELLGGPSVFLFPPKPKDTLMISRTPEVTCVVVDVSHEDPEVKFNWYVDGVEVHNAKTKPREEQYNSTYRVVSVLTVLHQDWLNGKEYKCKVSNKALPAPIEKTISKAKGQPREPRVYTLPPCRDELTKNQVSLTCLVKGFYPSDIAVEWESNGQPENNYKTTPPVLVSDGSFTLYSKLTVDKSRWQQGNVFSCSVMHEALHNHYTQKSLSLSPG
heavy: EVQLVESGGGLVKPGGSLRLSCAASGFTFSSYSMNWVRQAPGKGLEWVSSISSSSSYIYYADSVKGRFTISRDNAKNSLYLQMNSLRAEDTAVYYCARGAPIGAAAGWFDPWGQGTLVTVSSASTKGPSVFPLAPSSKSTSGGTAALGCLVKDYFPEPVTVSWNSGALTSGVHTFPAVLQSSGLYSLSSVVTVPSSSLGTQTYICNVNHKPSNTKVDKKVEPKSCDKTHTCPPCPAPELLGGPSVFLFPPKPKDTLMISRTPEVTCVVVDVSHEDPEVKFNWYVDGVEVHNAKTKPREEQYNSTYRVVSVLTVLHQDWLNGKEYKCKVSNKALPAPIEKTISKAKGQPREPQVCTLPPSRDELTENQVSLTCLVKGFYPSDIAVEWESNGQPENNYKTTPPVLDSDGSFFLYSWLTVDKSRWQQGNVFSCSVMHEALHNHYTQKSLSLSPG
light: DIQMTQSPSSVSASVGDRVTITCRASQGISSWLAWYQQKPGKAPKLLIYAASSLQSGVPSRFSGSGSGTDFTLTISSLQPEDFATYYCQQGVSFPRTFGGGTKVEIKRTVAAPSVFIFPPSDEQLKSGTASVVCLLNNFYPREAKVQWKVDNALQSGNSQESVTEQDSKDSTYSLSSTLTLSKADYEKHKVYACEVTHQGLSSPVTKSFNRGEC
notes: F3' format heterodimer of three chains; human IgG1 Fc with EW-RVT and Y349C/S354C mutations; also called AB0089 Lot AB0089-002; CLEC12A TriNKET AB0089
